Square brackets hold non-standard residues; d marks the D form. Ends that are not written are not given here. * marks the point of attachment. Met(O2) = CS(=O)(=O)CC[C@H](N)C(=O)O; Cha = N[C@@H](CC1CCCCC1)C(=O)O; Bn = c1ccc(C*)cc1
T1: human recombinant receptor VEGFR-1, the form consisting of the seven extracellular domains of the receptor fused to the Fc domain of human IgG (R&D Systems, cat No. 321-FL) (human), P17948
T1 chain: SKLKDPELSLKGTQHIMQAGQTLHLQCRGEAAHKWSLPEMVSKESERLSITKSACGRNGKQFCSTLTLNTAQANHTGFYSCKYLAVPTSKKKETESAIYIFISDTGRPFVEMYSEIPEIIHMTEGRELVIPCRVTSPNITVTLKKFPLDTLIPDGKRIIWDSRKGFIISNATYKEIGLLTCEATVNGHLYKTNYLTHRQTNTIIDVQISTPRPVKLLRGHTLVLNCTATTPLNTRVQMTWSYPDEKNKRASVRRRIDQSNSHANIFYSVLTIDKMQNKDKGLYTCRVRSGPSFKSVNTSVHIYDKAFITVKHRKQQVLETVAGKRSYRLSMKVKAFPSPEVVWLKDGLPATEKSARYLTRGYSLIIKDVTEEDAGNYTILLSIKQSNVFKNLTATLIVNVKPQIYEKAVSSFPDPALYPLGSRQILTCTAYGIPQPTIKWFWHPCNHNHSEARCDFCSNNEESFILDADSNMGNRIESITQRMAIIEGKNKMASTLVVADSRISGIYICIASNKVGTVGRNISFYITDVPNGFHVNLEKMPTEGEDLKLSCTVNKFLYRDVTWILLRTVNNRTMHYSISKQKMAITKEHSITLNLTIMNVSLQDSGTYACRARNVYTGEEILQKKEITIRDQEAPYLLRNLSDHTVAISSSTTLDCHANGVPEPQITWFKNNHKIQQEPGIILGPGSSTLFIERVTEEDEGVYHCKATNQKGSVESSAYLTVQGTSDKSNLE


What was measured:
[1] = target: T2, human recombinant receptor VEGFR-1, the form consisting of the seven extracellular domains of the receptor … (human, UniProt P17948 27-758); experiment: competition ELISA, VEGFR-1-Fc coated, VEGF-A as competing ligand
T2 construct: Bought reagent; also called Flt-1; not shown: Fc domain of human IgG
Experimental: The human recombinant receptor VEGFR-1, in particular the form consisting of the seven extracellular domains of the receptor fused to the Fc domain of human IgG (R&D Systems, cat No. 321-FL), was made to adhere in the wells of 96-well microplates at a concentration of 0.5 μg/ml in PBS pH 7.5 (100 μl/well) for 16 hours at room temperature (RT).
The binding reaction was conducted for one hour at 37° C., followed by one hour at room temperature.

[2] = target: T1, human recombinant receptor VEGFR-1, the …; experiment: competition ELISA, VEGFR-1-Fc coated, PlGF as competing ligand
[3] = target: T1, human recombinant receptor VEGFR-1, the …; experiment: competition ELISA, VEGFR-1-Fc coated, VEGF-A as competing ligand
[4] = target: T1, human recombinant receptor VEGFR-1, the …; experiment: competition ELISA, VEGFR-1-Fc coated, PlGF 5 ng/ml as competing ligand, peptide at 780 nM
[5] = target: T1, human recombinant receptor VEGFR-1, the …; experiment: competition ELISA, VEGFR-1-Fc coated, PlGF or VEGF-A as competing ligand; reference iVR1
[6] = target: T1, human recombinant receptor VEGFR-1, the …; experiment: competition ELISA, VEGFR-1-Fc coated, PlGF 5 ng/ml as competing ligand, peptide at 1560 nM
[7] = target: T1, human recombinant receptor VEGFR-1, the …; experiment: competition ELISA, VEGFR-1-Fc coated, PlGF 5 ng/ml as competing ligand, peptide at 3125 nM
[8] = target: T1, human recombinant receptor VEGFR-1, the …; experiment: competition ELISA, VEGFR-1-Fc coated, PlGF 5 ng/ml as competing ligand, peptide at 6250 nM
[9] = target: T1, human recombinant receptor VEGFR-1, the …; experiment: competition ELISA, VEGFR-1-Fc coated, PlGF 5 ng/ml as competing ligand, peptide at 12500 nM
[10] = target: T1, human recombinant receptor VEGFR-1, the …; experiment: competition ELISA, VEGFR-1-Fc coated, PlGF 5 ng/ml as competing ligand, peptide at 25000 nM
[11] = target: T1, human recombinant receptor VEGFR-1, the …; experiment: competition ELISA, VEGFR-1-Fc coated, PlGF 5 ng/ml as competing ligand, peptide at 50000 nM
[12] = target: T1, human recombinant receptor VEGFR-1, the …; experiment: competition ELISA, VEGFR-1-Fc coated, VEGF-A 5 ng/ml as competing ligand, peptide at 780 nM
[13] = target: T1, human recombinant receptor VEGFR-1, the …; experiment: competition ELISA, VEGFR-1-Fc coated, VEGF-A 5 ng/ml as competing ligand, peptide at 1560 nM
[14] = target: T1, human recombinant receptor VEGFR-1, the …; experiment: competition ELISA, VEGFR-1-Fc coated, VEGF-A 5 ng/ml as competing ligand, peptide at 3125 nM
[15] = target: T1, human recombinant receptor VEGFR-1, the …; experiment: competition ELISA, VEGFR-1-Fc coated, VEGF-A 5 ng/ml as competing ligand, peptide at 6250 nM
[16] = target: T1, human recombinant receptor VEGFR-1, the …; experiment: competition ELISA, VEGFR-1-Fc coated, VEGF-A 5 ng/ml as competing ligand, peptide at 12500 nM
[17] = target: T1, human recombinant receptor VEGFR-1, the …; experiment: competition ELISA, VEGFR-1-Fc coated, VEGF-A 5 ng/ml as competing ligand, peptide at 25000 nM
[18] = target: T1, human recombinant receptor VEGFR-1, the …; experiment: competition ELISA, VEGFR-1-Fc coated, VEGF-A 5 ng/ml as competing ligand, peptide at 50000 nM

IC50 [1] [nM]	IC50 [2] [nM]	IC50 [3] [nM]	binding % (residual PlGF binding to VEGFR-1) [4] [%]	inhibitory capacity, fold against iVR1 [5] [fold]	binding % (residual PlGF binding to VEGFR-1) [6] [%]	binding % (residual PlGF binding to VEGFR-1) [7] [%]	binding % (residual PlGF binding to VEGFR-1) [8] [%]	binding % (residual PlGF binding to VEGFR-1) [9] [%]	binding % (residual PlGF binding to VEGFR-1) [10] [%]	binding % (residual PlGF binding to VEGFR-1) [11] [%]	binding % (residual VEGF-A binding to VEGFR-1) [12] [%]	binding % (residual VEGF-A binding to VEGFR-1) [13] [%]	binding % (residual VEGF-A binding to VEGFR-1) [14] [%]	binding % (residual VEGF-A binding to VEGFR-1) [15] [%]	binding % (residual VEGF-A binding to VEGFR-1) [16] [%]	binding % (residual VEGF-A binding to VEGFR-1) [17] [%]	binding % (residual VEGF-A binding to VEGFR-1) [18] [%]	Binder
2430	–	–	–	–	–	–	–	–	–	–	–	–	–	–	–	–	–	tetrameric peptide having formula (II) with Y2 = D-serine (also: branched tetramer: four arms on both amines of two Lys, each bonded to an amine of the Lys of chain 3, Described only as a tetrameric peptide of formula (II) with Y2 different from D-cysteine) peptide: [dE]-Cys(Bn)-[Cha] chain 1: Lys chain 2: Lys-[dS]-NH2
2030	–	–	–	–	–	–	–	–	–	–	–	–	–	–	–	–	–	tetrameric peptide having formula (II) with Y2 = L-cysteine (also: branched tetramer: four arms on both amines of two Lys, each bonded to an amine of the Lys of chain 3, Described only as a tetrameric peptide of formula (II) with Y2 different from D-cysteine) peptide: [dE]-Cys(Bn)-[Cha] chain 1: Lys chain 2: Lys-Cys-NH2
–	< 1000	1000	83.8	10	35.5	25.5	14.1	12.6	10.3	9.18	92.3	43.7	21.7	12.5	9.81	7.99	6.5	iVR1-Cys, tetrameric peptide of formula (IIb): [H-(R-Glu)-(S-Cys(Bzl))-(S-Cha)]4-Lys2-Lys-(D-Cys)-NH2 (also: branched tetramer: four arms on alpha and epsilon amines of two Lys, each bonded to an amine of the Lys of chain 3) peptide: H-[dE]-Cys(Bn)-[Cha] chain 1: Lys chain 2: Lys-[dC]-NH2
4620	–	–	–	–	–	–	–	–	–	–	–	–	–	–	–	–	–	tetrameric peptide having formula (II) with Y2 = L-methionine sulfone (also: branched tetramer: four arms on both amines of two Lys, each bonded to an amine of the Lys of chain 3, Described only as a tetrameric peptide of formula (II) with Y2 different from D-cysteine) peptide: [dE]-Cys(Bn)-[Cha] chain 1: Lys chain 2: Lys-[Met(O2)]-NH2
–	10000	10000	99.4	–	101	96.1	68.5	44.6	36	26.3	98.4	96.2	93.9	66	37	21.4	8.6	iVR1, tetrameric peptide of formula (IIc): [H-(R-Glu)-(S-Cys(Bzl))-(S-Cha)]4-Lys2-Lys-Gly-NH2 (also: branched tetramer: four arms on alpha and epsilon amines of two Lys, each bonded to an amine of the Lys of chain 3) peptide: H-[dE]-Cys(Bn)-[Cha] chain 1: Lys chain 2: Lys-Gly-NH2
